B1: human wild type phenylalanine hydroxylase, fusion with maltose-binding protein (enzyme, UniProt P00439 1-452, looked up)
chain: MSTAVLENPGLGRKLSDFGQETSYIEDNCNQNGAISLIFSLKEEVGALAKVLRLFEENDVNLTHIESRPSRLKKDEYEFFTHLDKRSLPALTNIIKILRHDIGATVHELSRDKKKDTVPWFPRTIQELDRFANQILSYGAELDADHPGFKDPVYRARRKQFADIAYNYRHGQPIPRVEYMEEEKKTWGTVFKTLKSLYKTHACYEYNHIFPLLEKYCGFHEDNIPQLEDVSQFLQTCTGFRLRPVAGLLSSRDFLGGLAFRVFHCTQYIRHGSKPMYTPEPDICHELLGHVPLFSDRSFAQFSQEIGLASLGAPDEYIEKLATIYWFTVEFGLCKQGDSIKAYGAGLLSSFGELQYCLSEKPKLLPLELEKTAIQNYTVTEFQPLYYVAESFNDAKEKVRNFAATIPRPFSVRYDPYTQRIEVLDNTQQLKILADSINSEIGILCSALQKIK
notes: phenylalanine hydroxylase (PAH), human, WT cDNA in the pMAL-MBP-c2 vector; also called WT PAH; PAH-MBP fusion protein
B2: human phenylalanine hydroxylase variant p.Asp229Gly, fusion with maltose-binding protein (enzyme, UniProt P00439 1-452, looked up)
chain: B1 chain with D229G
notes: phenylalanine hydroxylase (PAH), human, missense variant from Czech PKU/HPA patients, made by site-directed mutagenesis of pMAL-PAH; Same construct as m1 with one substitution; also called c.686A>G
B3: human phenylalanine hydroxylase variant p.Ile406Met, fusion with maltose-binding protein (enzyme, UniProt P00439 1-452, looked up)
chain: B1 chain with I406M
notes: phenylalanine hydroxylase (PAH), human, missense variant from Czech PKU/HPA patients, made by site-directed mutagenesis of pMAL-PAH; Same construct as m1 with one substitution; also called c.1218A>G
B4: human phenylalanine hydroxylase variant p.Phe263Ser, fusion with maltose-binding protein (enzyme, UniProt P00439 1-452, looked up)
chain: B1 chain with F263S
notes: phenylalanine hydroxylase (PAH), human, missense variant from Czech PKU/HPA patients, made by site-directed mutagenesis of pMAL-PAH; Same construct as m1 with one substitution; also called c.788T>C
B5: human phenylalanine hydroxylase variant p.Asn167Tyr, fusion with maltose-binding protein (enzyme, UniProt P00439 1-452, looked up)
chain: B1 chain with N167Y
notes: phenylalanine hydroxylase (PAH), human, missense variant from Czech PKU/HPA patients, made by site-directed mutagenesis of pMAL-PAH; Same construct as m1 with one substitution; also called c.499A>T
B6: human phenylalanine hydroxylase variant p.Gly239Ala, fusion with maltose-binding protein (enzyme, UniProt P00439 1-452, looked up)
chain: B1 chain with G239A
notes: phenylalanine hydroxylase (PAH), human, missense variant from Czech PKU/HPA patients, made by site-directed mutagenesis of pMAL-PAH; Same construct as m1 with one substitution; also called c.716G>C
B7: human phenylalanine hydroxylase variant p.Thr200Asn, fusion with maltose-binding protein (enzyme, UniProt P00439 1-452, looked up)
chain: B1 chain with T200N
notes: phenylalanine hydroxylase (PAH), human, missense variant from Czech PKU/HPA patients, made by site-directed mutagenesis of pMAL-PAH; Same construct as m1 with one substitution; also called c.599C>A
B8: human phenylalanine hydroxylase variant p.Ala342Pro, fusion with maltose-binding protein (enzyme, UniProt P00439 1-452, looked up)
chain: B1 chain with A342P
notes: phenylalanine hydroxylase (PAH), human, missense variant from Czech PKU/HPA patients, made by site-directed mutagenesis of pMAL-PAH; Same construct as m1 with one substitution; also called c.1024G>C

Changes are numbered by the printed parent chain. Several values for one entry are separate records, joined by “and”; a condition that tells them apart may be missing. Equal entries are not always repeated.

The first data set concerns the molecule itself. In words: SEC; MBP-PAH expressed in E. coli XL1 blue without GroEL/ES; MBPTrap HP affinity, then Superdex 200 HR 10/30; 200 mM NaCl, 20 mM HEPES, pH 7.0; percent of oligomers, tetramers and dimers, mean of three column purifications.
Turning to B1, the stoichiometry N (usually a count of units in the complex or per binding partner) is 4 and 2.

A further data set concerns the molecule itself. Put plainly: SEC; MBP-PAH co-expressed with GroEL/ES (pGroELS) in E. coli XL1 blue; MBPTrap HP affinity, then Superdex 200 HR 10/30; 200 mM NaCl, 20 mM HEPES, pH 7.0; percent of oligomers, tetramers and dimers, mean of three column purifications. For orientation: SEC sorts molecules by how far they enter the pores of the column.
With B2, the “percent of purified protein as dimers” value came to 10.1% and the “percent of purified protein as tetramers” value is 10.2%.
On to B3, for which the “percent of purified protein as dimers” value worked out at 6.9% and the “percent of purified protein as tetramers” value amounted to 37.7%.
Take B4: the “percent of purified protein as dimers” value stood at 13.6% and the “percent of purified protein as tetramers” value stood at 11%.
In the same order, the values of B5 are 8.5% and 38.8%.
Take B6: the “percent of purified protein as dimers” value was determined as 14% and the “percent of purified protein as tetramers” value is 5.5%.
In the case of B7, the “percent of purified protein as dimers” value stood at 4.5% and the “percent of purified protein as tetramers” value was 43.8%.
In the same order, the values of B8 are 15.5% and 3.8%.

The next data set deals with the molecule itself. In words: SEC; MBP-PAH expressed in E. coli XL1 blue without GroEL/ES; MBPTrap HP affinity, then Superdex 200 HR 10/30; 200 mM NaCl, 20 mM HEPES, pH 7.0; percent of oligomers, tetramers and dimers, mean of three column purifications. This is another data set of the same source.
B2: the “percent of purified protein as dimers” value amounted to 19.3%.
On to B3, for which the “percent of purified protein as dimers” value stood at 15.6% and the “percent of purified protein as tetramers” value is 34.2%.
In the case of B4, the “percent of purified protein as dimers” value is 27.1%.
As to B5, the “percent of purified protein as dimers” value amounted to 20.2% and the “percent of purified protein as tetramers” value was found to be 33.2%.
Regarding B6, the “percent of purified protein as dimers” value is 32.8%.
On to B7, for which the “percent of purified protein as dimers” value came out at 10.5% and the “percent of purified protein as tetramers” value came to 40.5%.
In the case of B8, the “percent of purified protein as dimers” value is 22%.

The values above are taken from article PMC6628251, “Structural and Functional Impact of Seven Missense Variants of Phenylalanine Hydroxylase” (Genes, 2019).
